Values quoted from earlier work as cited in patent publication US20240366723A1, “COMBINATION THERAPY FOR THE TREATMENT OF ENTERIC NEUROPATHIES” (TRANSFERT PLUS, LIMITED PARTNERSHIP, priority 2021, published 2024).

B1: BMP4: Bone morphogenetic protein 4 (protein, UniProt P12644 293-408, looked up)
Bone morphogenetic protein 4: SPKHHSQRARKKNKNCRRHSLYVDFSDVGWNDWIVAPPGYQAFYCHGDCPFPLADHLNSTNHAIVQTLVNSVNSSIPKACCVPTELSAISMLYLDEYDKVVLKNYQEMVVEGCGCR
B2: MANF: Mesencephalic Astrocyte Derived Neurotrophic Factor (protein, UniProt P55145 25-182, looked up)
Mesencephalic …: LRPGDCEVCISYLGRFYQDLKDRDVTFSPATIENELIKFCREARGKENRLCYYIGATDDAATKIINEVSKPLAHHIPVEKICEKLKKKDSQICELKYDKQIDLSTVDLKKLRVKELKKILDDWGETCKGCAEKSDYIRKINELMPKYAPKAASARTDL

Conditions: literature reports, various models

Row | Molecule | Reported neurotrophic activity
1 | B1 | BMP signaling is necessary for neural crest cell
2 | B2 | MANF has neuroregenerative activity via differentiation
